Assays:
XuaJ = XuaJ (Ruminiclostridium cellulolyticum, UniProt B8I0P3); experiment: Esterase activity of XuaJ; type: biochemical; conditions: 37 °C, 25 mM phosphate buffer pH 7, XuaJ 0.01 µM for 1-naphthyl acetate
Experimental: (§1) Esterase activity was tested using 1-Naphthyl acetate. Release of 1-Naphthol was monitored at 320 nm during 5 min at 37 °C in 25 mM phosphate buffer pH 7, with substrate final concentration ranging from 110 µM and 5.36 mM, and with XuaH (0.1 µM) or XuaJ (0.01 µM). Concentration of released 1-Naphthol during the first minute of the assay was determined based on 1-Naphthol standard curve.

XuaH = XuaH (Ruminiclostridium cellulolyticum, UniProt B8I0P1); experiment: Esterase activity of XuaH; type: biochemical; conditions: 37 °C, 25 mM phosphate buffer pH 7, XuaH 0.1 µM for 1-naphthyl acetate
Sequence of XuaH (B8I0P1 entry or part of it): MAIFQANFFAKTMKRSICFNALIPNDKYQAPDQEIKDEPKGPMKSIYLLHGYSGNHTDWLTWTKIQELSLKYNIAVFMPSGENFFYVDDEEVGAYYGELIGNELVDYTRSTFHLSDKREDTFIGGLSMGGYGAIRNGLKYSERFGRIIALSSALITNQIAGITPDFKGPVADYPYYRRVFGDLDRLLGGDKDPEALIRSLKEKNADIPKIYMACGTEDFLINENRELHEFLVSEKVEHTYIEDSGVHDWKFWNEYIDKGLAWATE
Experimental: as §1

[1] = substrate: OC[C@@H]1O[C@@H](O[C@H]2[C@H](O[C@@H]3CO[C@@H](O[C@@H]4COC(O)[C@H](O)[C@H]4O)[C@H](O)[C@H]3O)OC[C@@H](O)[C@@H]2O)[C@H](O)[C@H]1O; experiment: Enzyme activity of XuaD on AXOS (HPAEC-PAD); type: biochemical, Ruminiclostridium cellulolyticum; conditions: other: 37 °C, substrate 0.05 to 8 mM
Experimental: (§2) XuaD, E, F, G (0.01 to 1 µM) were tested with different AXOS and/or XOS at 1 mM with incubation times varying from 5 min to 24 h. Enzymes (10 nM) were incubated at 37 °C for 5 min, kinetic parameters of XuaD were determined with both A^2,3XX and A^2XX, with sugar concentration varying from 0.05 to 8 mM, and XuaE with A^2,3XX with sugar concentration varying from 0.05 to 1 mM (at least 9 concentration point). Substrates and released products were quantified by high performance anion exchange chromatography coupled with pulsed amperometric detection on an ICS-3000 using a PA1 column (Thermo Scientific). Sugars were eluted with the buffers 0.1 M NaOH and 0.5 M sodium acetate + 0.1 M NaOH as the eluants A and B, respectively, using the multistep procedure as follows: isochratic separation (5 min, 95% A + 5% B), separation gradient (8 min, 10–37% B), column wash (2 min, 99% B), and subsequent column equilibration (2.5 min, 95% A + 5% B).

[2] = substrate: OC[C@@H]1O[C@@H](O[C@@H]2[C@@H](O[C@@H]3O[C@@H](CO)[C@H](O)[C@H]3O)[C@H](O[C@@H]3CO[C@@H](O[C@@H]4COC(O)[C@H](O)[C@H]4O)[C@H](O)[C@H]3O)OC[C@H]2O)[C@H](O)[C@H]1O; experiment: Enzyme activity of XuaD on AXOS (HPAEC-PAD); type: biochemical, Ruminiclostridium cellulolyticum; conditions: other: 37 °C, substrate 0.05 to 8 mM
Experimental: as §2

[3] = substrate: CC(=O)Oc1cccc2ccccc12; experiment: Esterase activity of XuaJ; type: biochemical, Ruminiclostridium cellulolyticum; conditions: other: 37 °C, pH 7, substrate 110 µM to 5.36 mM
Experimental: as §1

`CC(=O)Oc1cccc2ccccc12` [1-Naphthyl acetate] was tested, and the “Specific activity (IU) of XuaJ” value (XuaJ) was “IU: 21130.4 ± 676.4 IU/µmol of enzyme” and the “Specific activity (IU) of XuaH” value (XuaH) was “IU: 3504.6 ± 18.9 IU/µmol of enzyme”.

B1: XuaD (Ruminiclostridium cellulolyticum H10) (protein)
chain: MVKMILNADIKKGKINKNIYGHFSEHLGRCIYEGLWVGEDSEIPNINGFRTDVVEALKKMKIPVLRWPGGCFADEYHWVDGIGPKENRPCMVNTHWGGVVENNHFGTHEFLELCEMLGAEPYICGNVGSGTVHEMQQWVEYMTFDGKSPMADLRRANGKEEPWRVKYFGVGNENWGCGGNMTAEFYADQYKRYATYVRNFGDNKIYKIAGGASVDDYHWTEVLMREAGKQMDGLSVHYYTRISKDWSEQGSATEFDENHWFSVMQNALFTEELVVRHSNIMDKYDPEKKVGMIVDEWGTWFAVEPGTNPGFLYQQNTMRDALVAGIHLNIFNNHCDRVQMANIAQMVNVLQAVILTEGKKMLLTPTYHVFDMYKVHQGAELLSLDFESPEYAYNGEKVPQLSASSSVDSEGKIHVTICNLNPSADVNIDIDLRGVKSKSSTGKIITSNAMNAKNTFEETTNVTIKNFEDINLENNHISGKIPSKSVVLLEIV
B1 was tested, and the Km [1] was “Km 1.4 ± 0.3 mM”, the kcat [1] was “kcat 3408.0 ± 356.6 min^−1” and the kcat/Km [1] was “kcat/Km 2411.9 ± 303.3 min^−1 mM^−1”. For the same molecule, the Km [2] was “Km 1.8 ± 0.2 mM”, the kcat [2] was “kcat 4191.3 ± 117.3 min^−1” and the kcat/Km [2] was “kcat/Km 2388.2 ± 182.9 min^−1 mM^−1”.

B2: XuaJ (Ruminiclostridium cellulolyticum H10) (protein)
chain: MGIILNSNRPKIRLPRIISDGMVLQRNTDVKIWGWASPGEAVTVRFIGKAYHAFADDSGEWFVRLEQAKAGGPYDMYIETEESLEKITIKNILMGDVWLCSGQSNMEMKMDSVKDTYPDEIVHSCNDYIRHFLVPVKYDFEKPQTDLEAGIWEAANPESILDFTATGYFFALKLFEKYNIPIGLINASLGGSPAEAWLSENALREFPEHYESAKQLSNRDYLDKVLREDQESAEAWYTALNQNDEGLKSNDIPFHDTEYDAPFWQNIKVPSYWEDEGVGNFNGVVWFRKEIDIPSTLADKPARLVLGNIVDEDTAYINGIEVGTTPNQYITRKYSIQEGLLKEGKNTIVLRVVNTAGKGGFYKDKPYQLEIGDNIIELSGEWQYMIGAKSSPMPAPAFVQWRPLGLYNGMIAPVTSYSIKGFIWYQGESNTKNPGEYENLLKALIADWRQKWNMGNLPFLYVQLPNFMEASEIPMESSWAELREAQRRTLSVPCTGMAVAIDLGEWNDIHPVNKKDVGFRLALAAMKTAYRDKTIVAYGPMYQSGKIDGNRIILSFTDTGSGLTVKNGDRPEAFAIAGADRTFVRADAEIIGDSVAVWSEKVSHPVYVKYAWADNPADANLYNLEGLPASPFTTE
For B2, the Km [3] was “Km: 0.2 ± 0.02 mM”, the kcat [3] was “kcat: 21380.0 ± 440.0 min^-1” and the kcat/Km [3] was “kcat/Km: 88703.9 ± 7849.6 min^-1 mM^-1”.

Reference: article PMC9675976, “Selfish uptake versus extracellular arabinoxylan degradation in the primary degrader Ruminiclostridium cellulolyticum, a new string to its bow” (Biotechnology for Biofuels and Bioproducts, 2022)
